The values below come from patent publication US20250136677A1 (ZOETIS SERVICES, published 2025).

For assay [1], the target named is T1, mutant feline IL-31 15H05 protein (Feline_IL31_15H05_mutant) (feline).
T1 sequence: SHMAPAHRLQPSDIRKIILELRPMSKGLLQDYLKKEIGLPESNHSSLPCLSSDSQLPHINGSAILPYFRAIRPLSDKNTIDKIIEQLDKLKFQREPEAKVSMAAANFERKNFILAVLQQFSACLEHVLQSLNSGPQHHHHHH
The assay can be described thus: indirect ELISA, IL-31 protein coated. On the technique in general: An ELISA detects its analyte on a solid surface through an enzyme-linked reagent.

Assay [2] concerns the target T2, equine IL-31 protein (Equine_IL31) (equine).
T2 construct: Recombinant equine IL-31
T2 chain: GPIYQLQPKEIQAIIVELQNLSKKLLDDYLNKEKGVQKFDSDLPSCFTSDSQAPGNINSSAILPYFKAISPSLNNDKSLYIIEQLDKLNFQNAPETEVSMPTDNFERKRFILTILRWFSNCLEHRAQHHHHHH
The assay can be described thus: SPR (Biacore), IL-31 surface, single antibody concentration. The method, then: (§1) For the indirect ELISA method, antibody binding to wildtype and feline IL-31 15H05 mutant proteins was assessed. All nine canine monoclonal antibodies (ZIL1, ZIL8, ZIL8, ZIL11, ZIL69, ZIL94, ZIL154, ZIL159, and ZIL171) were capable of binding to wildtype feline IL-31 and binding was impacted by mutations in the mAb 15H05 epitope region confirming the correct binding phenotype determined during the initial screening used to identify them. In comparison, the 11E12 antibody bound to the wild-type feline IL-31 and its binding was not impacted by the mutations in the 15H05 epitope region as evidenced by the data in FIG. 4. To confirm binding, biacore analysis was performed using canine, feline, equine, human, feline 15H05 mutant, and feline 11E12 mutant IL-31 proteins as surfaces and a single test concentration of antibody. Similar to ELISA observations, all antibodies tested bound to wildtype feline IL-31. In agreement with the data described above in this section, mouse antibodies 11E12 and 15H05 both bound to canine and feline IL-31 surfaces. Three additional antibodies where shown to have this dual binding property, ZIL69 (partial canine binding), ZIL94, and ZIL159. From this group of nine fully canine antibodies, only ZIL1 and ZIL9 cross-reacted with equine IL-31. Of note, antibody 15H05 was the only one of all assayed herein that bound to canine, feline, and equine IL-31 indicating some level of epitope conservation across the three species. In contrast, none of the antibodies described herein bound to human IL-31. Additional biacore surfaces were used to verify ELISA observations showing differential binding of antibodies to wildtype feline IL-31 and two proteins with mutations in the 15H05 (15H05 mutant) or 11E12 (11E12 mutant) epitopes.

In assay [3] the target is T3, human IL-31 (human, UniProt Q6EBC2 24-164).
T3 sequence: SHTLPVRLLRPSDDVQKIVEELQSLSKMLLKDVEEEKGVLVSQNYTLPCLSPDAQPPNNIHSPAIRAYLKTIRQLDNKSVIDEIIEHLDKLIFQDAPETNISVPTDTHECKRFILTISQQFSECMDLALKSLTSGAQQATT
Described as above. The procedure:
as §1

Assay [4] addresses T4, wildtype feline IL-31 protein (Feline_IL31_wildtype) (feline).
T4 chain: T1 sequence with A103P, A105D
The assay can be described thus: cell-based or functional assay.

For assay [5], the target named is T4, wildtype feline IL-31 protein …. The assay can be described thus: SPR (Biacore), IL-31 on chip, 1:1 fit. The procedure: The affinity with which candidate mAbs bind canine and feline IL-31 was determined using surface plasmon resonance (SPR) on a Biacore system (Biocore Life Sciences (GE Healthcare), Uppsala, Sweden). To avoid affinity differences associated with differential surface preparation that can occur when immobilizing antibodies to surfaces; a strategy was employed where IL-31 was directly conjugated to the surface. Immobilization was obtained by amine coupling 5 μg/mL IL-31 using N-hydroxysuccinimide (NHS)/1-Ethyl-3-(3-dimethylaminopropyl) carbodiimide (EDC) chemistry. Chips were quenched with ethanolamine and the affinity with which all candidate mAbs bound to the immobilized IL-31 was evaluated. All curves were fit to a 1:1 model. […] Results for affinity measurements are described herein.

Assay [6] has as its target T5, canine IL-31 protein (Canine_IL31) (canine).
T5 chain: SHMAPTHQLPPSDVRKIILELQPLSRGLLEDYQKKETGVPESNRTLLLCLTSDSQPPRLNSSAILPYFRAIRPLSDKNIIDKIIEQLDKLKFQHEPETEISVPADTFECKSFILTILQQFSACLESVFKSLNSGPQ
The assay can be described thus: SPR (Biacore), IL-31 on chip, 1:1 fit.

In assay [7] the target is T5, canine IL-31 protein (Canine_IL31). The assay can be described thus: cell-based or functional assay.

As a reminder, the Kd is a measure of binding affinity in units of concentration. A high value points to a looser complex. Usually koff stands for the rate constant with which the complex falls apart. Read a high koff as a short-lived complex. The kon is a measure of how fast the partners come together. A lower kon goes with slow association.

Positions count from the first letter of the chain named.

B1: ZIL69 (recombinant fully canine antibody) (antibody, V domains shown)
VH: EVQLVESGGDLVKPAGSLRLSCVASGFTFSSYAMKWVRQAPGKGLQWVATINNDGTRTGYADAVRGRFTISKDNAKNTLYLQMDSLRADDTAVYYCTKGNAESGCTGDHCPPYWGQGTLVTVSS
VL: SSVLTQPPSVSVSLGQTATISCSGESLNKYYAQWFQQKAGQAPVLVIYKDTERPSGIPDRFSGSSAGNTHTLTISGARAEDEADYYCESAVSSETNVFGSGTQLTVLR
notes: also called CAN-ZIL69
Take B1: the ELISA OD in assay [1] came out at 0.92 OD. For the same molecule, the binding result in assay [2] is “no binding”.

B2: ZIL8 (recombinant fully canine antibody) (antibody, V domains shown)
VH: EVQLVESGGDLVKPAGSLRLSCVASGFTFSDYAMSWVRQAPGRGLQWVAGIDSVGSGTSYADAVKGRFTISRDDAKNTLYLQMFNLRAEDTAIYYCASGFPGSFEHWGQGTLVTVSS
VL: QSVLTQPASVSGSLGQKVTISCTGSSSNIGSGYVGWYQQLPGTGPRTLIYYNSDRPSGVPDRFSGSRSGTTATLTISGLQAEDEADYYCSVYDRTFNAVFGGGTHLTVL
notes: also called CAN-ZIL8; copies: 2 + 2
With B2, the binding result in assay [3] and in assay [2] was “no binding” in each case.

B3: ZIL11 (recombinant fully canine antibody) (antibody, V domains shown)
VH: EVQLVESGGDLVKPAGSLRLSCVASGFTFRTYVMNWVRQAPGKGLQWVASINGGGSSPTYADAVRGRFTVSRDNAQNSLFLQMNSLRAEDTAVYFCVVSMVGPFDYWGQGTLVTVSS
VL: SSVLTQPPSVSVSLGQTATISCSGESLSNYYAQWFQQKAGQAPVLVIYKDTERPSGIPDRFSGSSSGNTHTLTISGARAEDEADYYCESAVSSDTIVFGGGTHLTVL
notes: also called CAN-ZIL11; copies: 2 + 2
For the molecule B3, the ELISA OD in assay [1] was found to be 0.33 OD. Further, the binding result in assay [3] and in assay [2] was “no binding” in each case.

B4: ZIL1 (recombinant fully canine antibody) (antibody, V domains shown)
VH: EVQLVESGGDLVKPGGSLRLSCVASGFTFSSYGMSWVRQAPGKGLQWVAHINSGGSSTYYADAVKGRFTISRDNAKNTLYLQMNSLRAEDTAVYYCVEVYTTLAAFWTDNFDYWGQGTLVTVSS
VL: QSVLTQPTSVSGSLGQRVTISCSGSTNNIGILAATWYQQLPGKAPKVLVYSDGNRPSGVPDRFSGSKSGNSATLTITGLQAEDEADYYCQSFDTTLDAYVFGSGTQLTVLR
As for B4, the ELISA OD in assay [1] was determined as 0.92 OD.

B5: Feline 11E12 1.1 FW2 (antibody, V domains shown)
VH: QVLLVQSGAEVKKPGASVKIFCKASGYSFTYYDINWLRQAPEQGLEWMGWIFPGDGGTKYNETFKGRLTLTADTSTNTVYMELSSLRSADTAMYYCARGGTSVIRDAMDYWGQGALVTVSS
VL: EIQMTQSPSSLSASPGDRVTITCRASESVDNYGISFMHWYQQKPGQPPKLLIYRASNLESGVPSRFSGSGSGTDFTLTISSLEPEDAATYYCQQSNKDPLTFGQGT
notes: Feline 11E12 VL1 with the mouse FW2; Feline heavy and kappa constant regions
For the molecule B5, in assay [4], the “IC50, inhibition of feline IL-31-induced STAT3 phosphorylation, canine DH82 cells” value is 5.66 µg/mL and the “IC50, inhibition of feline IL-31-induced STAT3 phosphorylation, feline FCWF4 cells” value was 4.38 µg/mL. In assay [5], the affinity, expressed as Kd, was 0.75 nM; the koff stood at 0.000639 s⁻¹; the kon worked out at 852000 M⁻¹ s⁻¹. In assay [6], this molecule gave a koff of 0.000318 s⁻¹ and a kon of 45200 M⁻¹ s⁻¹.

B6: ZIL9 (recombinant fully canine antibody) (antibody, V domains shown)
VH: EVQLVESGGDLVKPPGSLRLSCVASGFTFSSYDMTWVRQAPGKGLQWVADVNSGGTGTAYAVAVKGRFTISRDNAKKTLYLQMNSLRAEDTAVYYCAKLGVRDGLSVWGQGTLVTVSS
VL: SSVLTQPPSVSVSLGQTATISCSGESLNEYYTQWFQQKAGQAPVLVIYRDTERPSGIPDRFSGSSSGNTHTLTISGARAEDEADYYCESAVDTGTLVFGGGTHLAVLR
B6 displayed an ELISA OD in assay [1] of 0.73 OD.

B7: ZIL171 (recombinant fully canine antibody) (antibody, V domains shown)
VH: B3 VH with V93I, Q109H
VL: B1 VL with E25K, N28S, K29Y, A66S, E94D, N96I, S100G, Q103H
notes: also called CAN-ZIL171
Turning to B7, the binding result in assay [2] is “no binding”.

B8: mouse:canine 11E12 chimera (antibody)
heavy: QVQLQQSGAELVKPGASVKLSCKASGYTFKYYDINWVRQRPEQGLEWIGWIFPGDGGTKYNETFKGKATLTTDKSSSTAYMQLSRLTSEDSAVYFCARGGTSVIRDAMDYWGQGTSVTVSSASTTAPSVFPLAPSCGSTSGSTVALACLVSGYFPEPVTVSWNSGSLTSGVHTFPSVLQSSGLYSLSSMVTVPSSRWPSETFTCNVAHPASKTKVDKPVPKRENGRVPRPPDCPKCPAPEMLGGPSVFIFPPKPKDTLLIARTPEVTCVVVDLDPEDPEVQISWFVDGKQMQTAKTQPREEQFNGTYRVVSVLPIGHQDWLKGKQFTCKVNNKALPSPIERTISKARGQAHQPSVYVLPPSREELSKNTVSLTCLIKDFFPPDIDVEWQSNGQQEPESKYRTTPPQLDEDGSYFLYSKLSVDKSRWQRGDTFICAVMHEALHNHYTQESLSHSPGK
light: DIVLTQSPASLAVSLGQRATISCRASESVDNYGISFMHWYQQKPGQPPKLLIYRASNLESGIPARFSGSGSRTDFTLTINPVETDDVATYYCQQSNKDPLTFGAGTKLELKRNDAQPAVYLFQPSPDQLHTGSASVVCLLNSFYPKDINVKWKVDGVIQDTGIQESVTEQDKDSTYSLSSTLTMSSTEYLSHELYSCEITHKSLPSTLIKSFQRSEC
notes: Mouse variable regions on canine IgG constant regions; made in HEK 293 cells; also called canine chimeric form of 11E12
For the molecule B8, the “IC50, inhibition of feline IL-31-induced STAT3 phosphorylation, feline FCWF4 cells” value in assay [4] came to 1.15 µg/mL. In assay [5], this molecule registered a Kd of 0.248 nM, an off-rate constant (koff) of 0.000108 s⁻¹ and an on-rate constant (kon) of 437000 M⁻¹ s⁻¹. Also, in assay [6], the Kd was 0.000826 nM, the off-rate (koff) is 6.55e-07 s⁻¹ and the kon was determined as 793000 M⁻¹ s⁻¹.

B9: ZTS-927 (antibody)
heavy: QVLLVQSGAEVRTPGASVKIFCKASGYSFTSYTIHWLRQAPAQGLEWMGNINPTSGYTENNQRFKDRLTLTADTSTNTAYMELSSLRSADTAMYYCARWGFKYDGEWSFDVWGAGTTVTVSSASTTAPSVFPLAPSCGTTSGATVALACLVLGYFPEPVTVSWNSGALTSGVHTFPAVLQASGLYSLSSMVTVPSSRWLSDTFTCNVAHPPSNTKVDKTVRKTDHPPGPKPCDCPKCPPPEMLGGPSIFIFPPKPKDTLSISRTPEVTCLVVDLGPDDSDVQITWFVDNTQVYTAKTSPREEQFNSTYRVVSVLPILHQDWLKGKEFKCKVNSKSLPSPIERTISKAKGQPHEPQVYVLPPAQEELSRNKVSVTCLIKSFHPPDIAVEWEITGQPEPENNYRTTPPQLDSDGTYFVYSKLSVDRSHWQRGNTYTCSVSHEALHSHHTQKSLTQSPGK
light: EIQMTQSPSSLSASPGDRVTITCRASQGISIWLSWYQQKPGNIPKVLINKASNLHIGVPSRFSGSGSGTDFTLTISSLEPEDAATYYCLQSQTYPLTFGGGTKLEIKRSDAQPSVFLFQPSLDELHTGSASIVCILNDFYPKEVNVKWKVDGVVQNKGIQESTTEQNSKDSTYSLSSTLTMSSTEYQSHEKFSCEVTHKSLASTLVKSFQRSECQRE
notes: Felinized 15H05 from a single GS plasmid
Consider B9, for which, in assay [7], the “IC50, inhibition of canine IL-31-induced STAT3 phosphorylation, canine DH82 cells” value stood at 23.2 µg/mL and the “IC50, inhibition of canine IL-31-induced STAT3 phosphorylation, feline FCWF4 cells” value was determined as 39.6 µg/mL. Moreover, in assay [4], the “IC50, inhibition of feline IL-31-induced STAT3 phosphorylation, canine DH82 cells” value stood at 1.57 µg/mL and the “IC50, inhibition of feline IL-31-induced STAT3 phosphorylation, feline FCWF4 cells” value stood at 5.26 µg/mL. In assay [5], this molecule displayed a Kd of 0.614 nM, a koff of 2.3e-05 s⁻¹ and a kon of 37400 M⁻¹ s⁻¹.
